How the values were obtained:
[1] = test system: T1, Protein 3: Erythrobacter sp. SD-21 PAL-like domain with N-terminal TAP purification tag (ribosomal protein L9 from T. maritima) and HRV14 3C protease site linker
T1 sequence: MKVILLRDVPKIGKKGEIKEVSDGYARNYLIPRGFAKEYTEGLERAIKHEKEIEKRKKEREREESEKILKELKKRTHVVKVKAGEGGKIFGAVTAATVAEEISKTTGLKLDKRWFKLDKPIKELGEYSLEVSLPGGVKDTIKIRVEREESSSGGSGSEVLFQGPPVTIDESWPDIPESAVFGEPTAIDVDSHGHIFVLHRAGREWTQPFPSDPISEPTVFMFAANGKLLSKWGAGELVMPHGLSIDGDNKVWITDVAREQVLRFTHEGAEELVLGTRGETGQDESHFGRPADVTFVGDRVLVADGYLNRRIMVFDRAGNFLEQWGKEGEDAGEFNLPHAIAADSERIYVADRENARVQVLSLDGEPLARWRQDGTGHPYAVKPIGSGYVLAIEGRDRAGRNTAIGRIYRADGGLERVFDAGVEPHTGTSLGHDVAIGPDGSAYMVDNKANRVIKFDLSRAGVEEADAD

[2] = test system: T2, Protein 8: Exiguobacterium PAL-like domain with N-terminal TAP purification tag and HRV14 3C protease site linker
T2 sequence: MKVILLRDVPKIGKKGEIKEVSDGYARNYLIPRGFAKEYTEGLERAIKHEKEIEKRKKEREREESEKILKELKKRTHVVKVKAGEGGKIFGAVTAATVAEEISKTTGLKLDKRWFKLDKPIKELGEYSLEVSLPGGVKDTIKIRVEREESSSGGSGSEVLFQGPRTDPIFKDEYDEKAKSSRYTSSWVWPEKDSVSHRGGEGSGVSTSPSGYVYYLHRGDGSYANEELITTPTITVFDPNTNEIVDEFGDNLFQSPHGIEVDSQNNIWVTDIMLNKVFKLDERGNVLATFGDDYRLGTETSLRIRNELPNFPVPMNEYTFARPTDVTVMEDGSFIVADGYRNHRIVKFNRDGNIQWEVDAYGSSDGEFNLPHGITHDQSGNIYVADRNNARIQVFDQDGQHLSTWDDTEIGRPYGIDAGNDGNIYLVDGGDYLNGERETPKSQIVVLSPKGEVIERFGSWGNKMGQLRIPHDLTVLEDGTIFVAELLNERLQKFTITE

[3] = biological target: T3, TAP tagged C-terminal Gly extended amylin analog model peptide (SEQ ID NO:17), precursor form
T3 chain: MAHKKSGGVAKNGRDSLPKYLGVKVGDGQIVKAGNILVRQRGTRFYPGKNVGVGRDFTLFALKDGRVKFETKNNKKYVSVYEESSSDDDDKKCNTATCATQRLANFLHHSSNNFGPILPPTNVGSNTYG

[4] = biological target: C-terminally Gly-extended Pramlintide (SEQ ID NO: 25)
[5] = biological target: T4, TAP tagged amylin analog model peptide (SEQ ID NO:17), alpha-hydroxyglycine intermediate form
T4 chain: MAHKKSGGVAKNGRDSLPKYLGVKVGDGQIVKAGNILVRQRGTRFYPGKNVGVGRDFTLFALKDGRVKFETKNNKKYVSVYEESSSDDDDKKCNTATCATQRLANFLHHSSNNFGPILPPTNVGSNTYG

[6] = biological target: C-terminal alpha-hydroxyglycine extended Pramlintide (alpha-hydroxylated SEQ ID NO:25)

TAP tagged HRV14 3C protease (from WO 2008/043847)
proteolytic cleavage at the linker, LC-MS and SDS-PAGE, overnight at 30 C, enzyme to substrate 1:25 [1]: resulted in two fragments determined to 33323 Da and 18284.78 Da corresponding to the released PAL-like domain ... and to the released purification tag and HRV14 3C linker | proteolytic cleavage at the linker, SDS-PAGE, overnight, enzyme to substrate 1:25 [2]: two fragments corresponding to the mature Exiguibacterium PAL-like domain (SEQ ID NO:2) (upper band) and the released TAP tag (SEQ ID NO:7-SEQ ID NO:8) (lower band) was present in the application

B1: rat PHM domain (amino acids 36 to 497 of the 976 aa full-length rat PAM sequence), His tagged (protein)
chain: FKETTRSFSNECLGTIGPVTPLDASDFALDIRMPGVTPKESDTYFCMSMRLPVDEEAFVIDFKPRASMDTVHHMLLFGCNMPSSTGSYWFCDEGTCTDKANILYAWARNAPPTRLPKGVGFRVGGETGSKYFVLQVHYGDISAFRDNHKDCSGVSVHLTRVPQPLIAGMYLMMSVDTVIPPGEKVVNADISCQYKMYPMHVFAYRVHTHHLGKVVSGYRVRNGQWTLIGRQNPQLPQAFYPVEHPVDVTFGDILAARCVFTGEGRTEATHIGGTSSDEMCNLYIMYYMEAKYALSFMTCTKNVAPDMFRTIPAEANIPIPVKPDMVMMHGHHKEAENKEKSALMQQPKQGEEEVLEQGDFYSLLSKLLGEREDVHVHKYNPTEKTESGSDLVAEIANVVQKKDLGRSDAREGAEHEEWGNAILVRDRIHRFHQLESTLRPAESRAFSFQQPGEGPWEPEPSG
conversion of the C-terminal Gly to alpha-hydroxyglycine, LC-MS after 2 hours at 37 C [3]: the vast majority of the model peptide was on the intermediate form comprising a α-hydroxyglycine in the C-terminal | conversion of Gly-extended Pramlintide to the alpha-hydroxyglycine form, LC-MS, enzyme to substrate 1:20 (w/w), 37 C, 2 h [4]: it was verified that the intermediate alpha-hydroxyglycine form of Pramlintide was obtained

B2: Protein 10: Planctomyces DSM 8797 PAL-like domain with N-terminal TAP purification tag and HRV14 3C protease site linker (protein)
chain: MKVILLRDVPKIGKKGEIKEVSDGYARNYLIPRGFAKEYTEGLERAIKHEKEIEKRKKEREREESEKILKELKKRTHVVKVKAGEGGKIFGAVTAATVAEEISKTTGLKLDKRWFKLDKPIKELGEYSLEVSLPGGVKDTIKIRVEREESSSGGSGSEVLFQGPADKIDFEPAAINIELPEGLALGPASAVDFDSKGRMYLFHRGPQPILVFDQSGKFVRSWGDKLISQAHGLRVAPDETIWVTDIGNHMVFQFNPEGKLLLALGQAGKPGDSQDQFNKPTDIAFGPQGEFYISDGYGNSRVMKFAANGKNLGQWGTPGKGPGEFNLPHSILVDAKGRVLVGDRENDRVQIFDLEGNLLEIWTGFAPYGMEFDSRGNLFVADGRANKVLQLNASGKVENSWGKTGKEPGEYNLPHMLAVDAAGNLFVTEIGGKRLQKLQRK
conversion to the alpha amidated form, LC-MS, co-incubation with rat PHM at 37 C [5]: With protein 10 total conversion of the precursor was observed already after 1 h-2 h incubation

B3: Protein 3: Erythrobacter sp. SD-21 PAL-like domain with N-terminal TAP purification tag (ribosomal protein L9 from T. maritima) and HRV14 3C protease site … (protein)
chain: MKVILLRDVPKIGKKGEIKEVSDGYARNYLIPRGFAKEYTEGLERAIKHEKEIEKRKKEREREESEKILKELKKRTHVVKVKAGEGGKIFGAVTAATVAEEISKTTGLKLDKRWFKLDKPIKELGEYSLEVSLPGGVKDTIKIRVEREESSSGGSGSEVLFQGPPVTIDESWPDIPESAVFGEPTAIDVDSHGHIFVLHRAGREWTQPFPSDPISEPTVFMFAANGKLLSKWGAGELVMPHGLSIDGDNKVWITDVAREQVLRFTHEGAEELVLGTRGETGQDESHFGRPADVTFVGDRVLVADGYLNRRIMVFDRAGNFLEQWGKEGEDAGEFNLPHAIAADSERIYVADRENARVQVLSLDGEPLARWRQDGTGHPYAVKPIGSGYVLAIEGRDRAGRNTAIGRIYRADGGLERVFDAGVEPHTGTSLGHDVAIGPDGSAYMVDNKANRVIKFDLSRAGVEEADAD
conversion to the alpha amidated form, LC-MS, co-incubation with rat PHM at 37 C [5]: near complete conversion to the alpha amidated form required 5 hours incubation with the protein 3 enzyme

B4: Erythrobacter PAL-like domain (SEQ ID NO: 1) (protein)
chain: GPPVTIDESWPDIPESAVFGEPTAIDVDSHGHIFVLHRAGREWTQPFPSDPISEPTVFMFAANGKLLSKWGAGELVMPHGLSIDGDNKVWITDVAREQVLRFTHEGAEELVLGTRGETGQDESHFGRPADVTFVGDRVLVADGYLNRRIMVFDRAGNFLEQWGKEGEDAGEFNLPHAIAADSERIYVADRENARVQVLSLDGEPLARWRQDGTGHPYAVKPIGSGYVLAIEGRDRAGRNTAIGRIYRADGGLERVFDAGVEPHTGTSLGHDVAIGPDGSAYMVDNKANRVIKFDLSRAGVEEADAD
conversion of the alpha-hydroxyglycine intermediate to alpha amidated Pramlintide, LC-MS, 37 C, 1 h [6]: could almost completely convert the peptide substrate to fully alpha-amidated peptide using a enzyme to substrate ratio of 1:100

B5: Planctomyces PAL-like domain (SEQ ID NO: 4) (protein)
chain: GPADKIDFEPAAINIELPEGLALGPASAVDFDSKGRMYLFHRGPQPILVFDQSGKFVRSWGDKLISQAHGLRVAPDETIWVTDIGNHMVFQFNPEGKLLLALGQAGKPGDSQDQFNKPTDIAFGPQGEFYISDGYGNSRVMKFAANGKNLGQWGTPGKGPGEFNLPHSILVDAKGRVLVGDRENDRVQIFDLEGNLLEIWTGFAPYGMEFDSRGNLFVADGRANKVLQLNASGKVENSWGKTGKEPGEYNLPHMLAVDAAGNLFVTEIGGKRLQKLQRK
conversion of the alpha-hydroxyglycine intermediate to alpha amidated Pramlintide, LC-MS, 37 C, 1 h [6]: could almost completely convert the peptide substrate to fully alpha-amidated peptide using a enzyme to substrate ratio of 1:100

Reference: patent US20160083713
